Experimental data from article PMC3489787, “Characterization of EssB, a protein required for secretion of ESAT-6 like proteins in Staphylococcus aureus” (BMC Microbiology, 2012).

Biological target: the molecule itself
Assay: SEC; about 100 ug of each purified protein, tags removed, on Superdex 75 10/300 GL in 50 mM Tris-HCl pH 8.0, 150 mM NaCl, 1 mM DTT at 4 °C, 0.5 ml/min; fractions on Coomassie-stained SDS-PAGE; calibrated with aldolase 158, conalbumin 75, ovalbumin 43, myoglobin 17 kDa (the results name a Sephacryl S-200 column)

B1: EssB^NM (domain or fragment)
chain: MVKNHNPKNEMQDMLTPLDAEEAAKTKLRLDMREIPKSSIKPEHFHLMYLLEQHSPYFIDAELTELRDSFQIHYDINDNHTPFDNIKSFTKNEKLRYLLNIKNLEEVNRTRYTFVLAPDELFFTRDGLPIAKTRGLQNVVDPLPVSEAEFLTRYKALVICAFNEKQSFDALVEGNLELHKGTPFETKVIEAATLDLLTAFLDEQYQKQEQDYSQNYAYVRKVGHTVFKWVAIGMTTLSVLLIAFLAFLYFSV
notes: EssB of Staphylococcus aureus, codons 1-252, N-terminal domain with the PTMD (229-251); also called his-essB^NM product; EssB(1-252); source: E. coli, pET15b, purified (Ni-NTA Agarose, thrombin cleavage); not shown: His6, N-terminal, cleaved
Q: Does B1 bind?
A: binds

B2: EssB^MC (domain or fragment)
chain: RKVGHTVFKWVAIGMTTLSVLLIAFLAFLYFSVMKHNERIEKGYQAFVKDDYTQVLNTYDDLDGKKLDKEALYIYAKSYIQTNKQGLEKDKKENLLNNVTPNSNKDYLLYWMELGQGHLDEAINIATYLDDNDITKLALINKLNEIKNNGDLSNDKRSEETKKYNDKLQDILDKEKQVKDEKAKSEEEKAKAKDEKLKQQEENEKKQKEQAQKDKEKRQEAERKK
notes: EssB of Staphylococcus aureus, codons 220-444, C-terminal domain with the PTMD (229-251); also called EssB^CM; his-essB^CM product; source: E. coli, pET15b, purified (Ni-NTA Agarose, thrombin cleavage); not shown: His6, N-terminal, cleaved
Q: Does B2 bind?
A: binds
